We go through four substances from publication PMC7925178.

By stoichiometry N is commonly meant the number of molecules, sites or subunits per partner or assembly.

Assay [1] deals with AMC011 SOSIP.v4.2 trimer (HIV-1 (subtype B)). Put plainly: native gel or EMSA. For orientation: A gel shift assay detects complexes by their altered migration in electrophoresis.
Assay [2] deals with AMC011 SOSIP.v5.2 trimer (HIV-1 (subtype B)). The experiment in a line: negative-stain electron microscopy; NS-EM, reference-free 2D class averages of purified SOSIP trimers; percent native-like trimers.
For assay [3] the target is unchanged. Put plainly: native gel or EMSA.
Assay [4] has as its target AMC009 SOSIP.v5.2 trimer (HIV-1 (subtype B)). The experiment in a line: negative-stain electron microscopy; NS-EM, reference-free 2D class averages of purified SOSIP trimers; percent native-like trimers.
The target is the same in assay [5]. Put plainly: native gel or EMSA.
The target of assay [6] is AMC009 SOSIP.v4.2-D7324 trimer (HIV-1 (subtype B)). The experiment in a line: negative-stain electron microscopy; NS-EM, reference-free 2D class averages of purified SOSIP trimers; percent native-like trimers.

Substance AMC011 SOSIP.v4.2 trimer (complex) displayed a stoichiometry N in assay [1] of 3. AMC011 SOSIP.v5.2 trimer (complex): the % native-like trimers in assay [2] worked out at 100%. In assay [3], this substance gave a stoichiometry N of 3. Take AMC009 SOSIP.v5.2 trimer (complex): in assay [4], the % native-like trimers was 100%. In assay [5], the stoichiometry N amounted to 3. For “AMC009 SOSIP.v4.2-D7324 trimer (complex)”, the % native-like trimers in assay [6] is 100%.
